Test results taken from the Human Domainome abundance scans (Beltran et al. 2025).
± gives the uncertainty stated by the source.

B1: Zinc finger homeobox protein 3, residues 2147 to 2202; numbered along this chain, Q15911 (parent)
chain: RPRTRITDDQLRVLRQYFDINNSPSEEQIKEMADKSGLPQKVIKHWFRNTLFKERQ

Variants of: B1
Experiment: abundance fitness (aPCA) (normalised: wild type 0, dead -1); higher = more abundant; growth selection in yeast, the domain comes from the species named
Settings: Homo sapiens

R15D and Q10K are within error of each other in abundance fitness: -0.29 ± 0.12 for the first, -0.359 ± 0.093 for the second.

Going from F47H to E31I, the abundance fitness rises from -0.699 ± 0.16 to -0.252 ± 0.17.

D34R and E31H are within error of each other in abundance fitness: -0.086 ± 0.068 for the first, -0.168 ± 0.16 for the second.

D8F and E27L are within error of each other in abundance fitness: -0.204 ± 0.1 for the first, -0.102 ± 0.072 for the second.

Going from G37V to S36W, the abundance fitness rises from -0.427 ± 0.082 to -0.182 ± 0.084.

S25D and S36M are within error of each other in abundance fitness: -0.225 ± 0.16 for the first, -0.157 ± 0.093 for the second.

First: P24R
Second: L38C
The abundance fitness of the first is lower: -0.716 ± 0.071 for the first, -0.143 ± 0.14 for the second.

First: K41D
Second: Q10P
The abundance fitness of the first is higher: -0.054 ± 0.19 for the first, -0.741 ± 0.094 for the second.

K53T and E54V are within error of each other in abundance fitness: 0.017 ± 0.11 for the first, -0.159 ± 0.1 for the second.

Going from T7H to P24I, the abundance fitness falls from -0.336 ± 0.13 to -0.652 ± 0.16.

First: H45R
Second: I43N
The abundance fitness of the first is higher: -0.052 ± 0.091 for the first, -0.959 ± 0.22 for the second.

Going from R5P to S36D, the abundance fitness falls from 0.127 ± 0.084 to -0.669 ± 0.16.

D34L and P2Y are within error of each other in abundance fitness: -0.123 ± 0.081 for the first, -0.057 ± 0.18 for the second.

N21M and S36E are within error of each other in abundance fitness: -0.103 ± 0.12 for the first, -0.14 ± 0.11 for the second.

Compared with D19K, F18R is lower in abundance fitness: 0.101 ± 0.1 for the first, -0.069 ± 0.064 for the second.

E54K and R3Y are within error of each other in abundance fitness: -0.344 ± 0.15 for the first, -0.085 ± 0.19 for the second.

Compared with P39W, L14I is higher in abundance fitness: -0.564 ± 0.1 for the first, -0.217 ± 0.15 for the second.

First: K30W
Second: V13L
The abundance fitness of the first is lower: -0.537 ± 0.099 for the first, 0.055 ± 0.061 for the second.

N22P and K53A are within error of each other in abundance fitness: -0.035 ± 0.099 for the first, 0.017 ± 0.083 for the second.

Compared with P24G, Y17Q is higher in abundance fitness: -0.685 ± 0.074 for the first, -0.196 ± 0.095 for the second.

N22G and K30D are within error of each other in abundance fitness: -0.152 ± 0.065 for the first, -0.155 ± 0.11 for the second.

D9A and R12K are within error of each other in abundance fitness: 0.088 ± 0.078 for the first, 0.051 ± 0.092 for the second.

I20P and N22S are within error of each other in abundance fitness: 0.036 ± 0.089 for the first, 0.001 ± 0.086 for the second.

Going from D9F to M32R, the abundance fitness falls from -0.013 ± 0.13 to -1.18 ± 0.089.

I29Y and N22T are within error of each other in abundance fitness: -0.189 ± 0.25 for the first, 0.079 ± 0.089 for the second.

Compared with L38G, E26N is higher in abundance fitness: -0.857 ± 0.075 for the first, -0.082 ± 0.15 for the second.

Compared with T7Y, S36H is higher in abundance fitness: -0.388 ± 0.13 for the first, -0.057 ± 0.12 for the second.

I20L and R15H are within error of each other in abundance fitness: -0.036 ± 0.072 for the first, 0.099 ± 0.11 for the second.

D34V and L51A are within error of each other in abundance fitness: -0.063 ± 0.074 for the first, -0.037 ± 0.076 for the second.

First: N49W
Second: R5D
The abundance fitness of the first is lower: -0.014 ± 0.15 for the first, 0.235 ± 0.087 for the second.

Going from R3F to D9K, the abundance fitness rises from -0.275 ± 0.15 to 0.046 ± 0.098.

Q28H and K30S are within error of each other in abundance fitness: -0.058 ± 0.13 for the first, -0.205 ± 0.092 for the second.

First: P39S
Second: P39F
The abundance fitness of the first is higher: 0.045 ± 0.08 for the first, -0.746 ± 0.22 for the second.

I6F and P39C are within error of each other in abundance fitness: -0.052 ± 0.12 for the first, -0.192 ± 0.15 for the second.

K41M and P2Q are within error of each other in abundance fitness: -0.011 ± 0.13 for the first, 0.215 ± 0.17 for the second.

D34Y and E54L are within error of each other in abundance fitness: -0.253 ± 0.12 for the first, -0.127 ± 0.1 for the second.

L51H and W46I are within error of each other in abundance fitness: 0.016 ± 0.13 for the first, -0.118 ± 0.2 for the second.

F47R and W46P are within error of each other in abundance fitness: -0.858 ± 0.1 for the first, -0.812 ± 0.2 for the second.

P2C and Q10L are within error of each other in abundance fitness: -0.608 ± 0.14 for the first, -0.453 ± 0.072 for the second.

Going from Q40M to G37T, the abundance fitness falls from -0.103 ± 0.11 to -0.342 ± 0.11.

First: R15M
Second: R3M
The abundance fitness of the first is lower: -0.023 ± 0.084 for the first, 0.293 ± 0.11 for the second.

Going from N49F to D9C, the abundance fitness rises from -0.194 ± 0.16 to 0.158 ± 0.1.

D34M and K44D are within error of each other in abundance fitness: -0.097 ± 0.11 for the first, -0.08 ± 0.16 for the second.

F18T and E27M are within error of each other in abundance fitness: -0.109 ± 0.091 for the first, -0.039 ± 0.097 for the second.

Q40W and R3L are within error of each other in abundance fitness: -0.068 ± 0.092 for the first, -0.014 ± 0.082 for the second.

Going from I29P to K53H, the abundance fitness rises from -0.838 ± 0.17 to -0.07 ± 0.14.

Going from P2N to R12T, the abundance fitness falls from 0.28 ± 0.22 to -0.205 ± 0.076.

R55I and Q16P are within error of each other in abundance fitness: -0.096 ± 0.16 for the first, -0.242 ± 0.1 for the second.

R48F and L51N are within error of each other in abundance fitness: -0.023 ± 0.16 for the first, -0.014 ± 0.14 for the second.

S25G and I29T are within error of each other in abundance fitness: 0.024 ± 0.069 for the first, -0.109 ± 0.12 for the second.

L11I and K44R are within error of each other in abundance fitness: -0.126 ± 0.13 for the first, -0.069 ± 0.081 for the second.

Going from S23I to H45W, the abundance fitness rises from -0.501 ± 0.23 to 0.028 ± 0.099.

T50E and S23A are within error of each other in abundance fitness: -0.047 ± 0.12 for the first, -0.033 ± 0.08 for the second.

D8T and K41R are within error of each other in abundance fitness: -0.001 ± 0.081 for the first, -0.142 ± 0.083 for the second.

Going from S25A to E26D, the abundance fitness rises from -0.14 ± 0.071 to 0.063 ± 0.097.

D19N and V42I are within error of each other in abundance fitness: -0.056 ± 0.1 for the first, -0.074 ± 0.12 for the second.

T4I and G37E are within error of each other in abundance fitness: -0.02 ± 0.16 for the first, -0.155 ± 0.11 for the second.

Q40D and R3S are within error of each other in abundance fitness: -0.06 ± 0.19 for the first, 0.034 ± 0.087 for the second.

N49C and P2L are within error of each other in abundance fitness: 0.082 ± 0.13 for the first, 0.086 ± 0.096 for the second.

H45Q and R3G are within error of each other in abundance fitness: 0.085 ± 0.1 for the first, 0.143 ± 0.066 for the second.

Compared with Q16G, L14N is lower in abundance fitness: 0.008 ± 0.068 for the first, -1.22 ± 0.21 for the second.

First: N21E
Second: I6W
The abundance fitness of the first is higher: -0.005 ± 0.095 for the first, -0.477 ± 0.1 for the second.

Going from N49E to F47V, the abundance fitness falls from 0.153 ± 0.16 to -0.17 ± 0.087.

T50D and T50F are within error of each other in abundance fitness: -0.264 ± 0.18 for the first, -0.341 ± 0.2 for the second.

T50N and A33V are within error of each other in abundance fitness: -0.044 ± 0.15 for the first, -0.186 ± 0.15 for the second.

T7G and Q28E are within error of each other in abundance fitness: -0.2 ± 0.067 for the first, -0.102 ± 0.096 for the second.

Going from Q28F to H45A, the abundance fitness rises from -0.562 ± 0.15 to 0.039 ± 0.077.

Q40L and S23Q are within error of each other in abundance fitness: 0.072 ± 0.083 for the first, 0.004 ± 0.12 for the second.

V42P and W46D are within error of each other in abundance fitness: -0.618 ± 0.18 for the first, -0.361 ± 0.41 for the second.

First: M32T
Second: D19V
The abundance fitness of the first is lower: -0.584 ± 0.14 for the first, 0.014 ± 0.069 for the second.

D19R and T7A are within error of each other in abundance fitness: -0.031 ± 0.061 for the first, -0.024 ± 0.074 for the second.

T7V and Q10D are within error of each other in abundance fitness: -0.208 ± 0.074 for the first, -0.308 ± 0.1 for the second.

Compared with P24T, E31G is higher in abundance fitness: -0.585 ± 0.1 for the first, -0.316 ± 0.074 for the second.

K30H and N22C are within error of each other in abundance fitness: -0.161 ± 0.14 for the first, 0.001 ± 0.11 for the second.

R55L and S25N are within error of each other in abundance fitness: -0.179 ± 0.084 for the first, -0.196 ± 0.13 for the second.

Q10W and T4H are within error of each other in abundance fitness: -0.718 ± 0.088 for the first, -0.549 ± 0.36 for the second.

R55C and S25M are within error of each other in abundance fitness: -0.313 ± 0.15 for the first, -0.523 ± 0.098 for the second.

Compared with P39H, G37F is lower in abundance fitness: -0.079 ± 0.18 for the first, -0.504 ± 0.15 for the second.

S23K and K41L are within error of each other in abundance fitness: -0.07 ± 0.12 for the first, -0.004 ± 0.094 for the second.

Q56A and K35T are within error of each other in abundance fitness: 0.09 ± 0.31 for the first, -0.189 ± 0.091 for the second.

I20T and T50C are within error of each other in abundance fitness: -0.052 ± 0.093 for the first, -0.314 ± 0.17 for the second.

D8E and G37K are within error of each other in abundance fitness: -0.012 ± 0.076 for the first, -0.048 ± 0.11 for the second.

First: N49R
Second: K30G
The abundance fitness of the first is higher: 0.02 ± 0.086 for the first, -0.188 ± 0.069 for the second.

V13Y gave an abundance fitness of -0.037 ± 0.071.
